Residue numbers refer to the chain shown, from its start. Numbers in names are those of the source. Where two headings read alike, the source gives them in different places.
B1: ^hexYME1L (hex-tag, 10-residue linker and the catalytic domain of human YME1L, residues 317-773) (other, homo sapiens)
chain: GELKAIAQELKAIAKELKAIAWELKAIAQGAGGSGSYFQSNARFRTTTGLDSAVDPVQMKNVTFEHVKGVEEAKQELQEVVEFLKNPQKFTILGGKLPKGILLVGPPGTGKTLLARAVAGEADVPFYYASGSEFDEMFVGVGASRIRNLFREAKANAPCVIFIDELDSVGGKRIESPMHPYSRQTINQLLAEMDGFKPNEGVIIIGATNFPEALDNALIRPGRFDMQVTVPRPDVKGRTEILKWYLNKIKFDQSVDPEIIARGTVGFSGAELENLVNQAALKAAVDGKEMVTMKELEFSKDKILMGPERRSVEIDNKNKTITAYHESGHAIIAYYTKDAMPINKATIMPRGPTLGHVSLLPENDRWNETRAQLLAQMDVSMGGRVAEELIFGTDHITTGASSDFDNATKIAKRMVTKFGMSEKLGVMTYSDTGKLSPETQSAIEQEIRILLRDSYERAKHILKTHAKEHKNLAEALLTYETLDAKEIQIVLEGKKLEVR
B2: ^hexYME1L_(E439A) M452C (other, homo sapiens)
chain: B1 chain with E165A, M178C
B3: ^hexYME1L_(E439A) M500C (other, homo sapiens)
chain: B1 chain with E165A, M226C
B4: ^hexYME1L_(E439A) M701C (other, homo sapiens)
chain: B1 chain with E165A, M427C

What was measured:
[1] = molecular target: the molecule itself; experiment: SEC
[2] = molecular target: the molecule itself

| Protein | stoichiometry N [1] | stoichiometry N [2] |
| --- | --- | --- |
| B1 | 6 | – |
| B2 | – | 6 |
| B3 | – | 6 |
| B4 | – | 6 |

From publication doi:10.1101/2025.01.30.635686 (bioRxiv, 2025)
